In article PMC9536601, “Binding of adenovirus species C hexon to prothrombin and the influence of hexon on vector properties in vitro and in vivo” (PLoS Pathogens, 2022):

B2: hexon of wild-type human adenovirus type 5 (on virions) (natural protein)
chain: ATPSMMPQWSYMHISGQDASEYLSPGLVQFARATETYFSLNNKFRNPTVAPTHDVTTDRSQRLTLRFIPVDREDTAYSYKARFTLAVGDNRVLDMASTYFDIRGVLDRGPTFKPYSGTAYNALAPKGAPNPCEWDEAATALEINLEEEDDDNEDEVDEQAEQQKTHVFGQAPYSGINITKEGIQIGVEGQTPKYADKTFQPEPQIGESQWYETEINHAAGRVLKKTTPMKPCYGSYAKPTNENGGQGILVKQQNGKLESQVEMQFFSTTEATAGNGDNLTPKVVLYSEDVDIETPDTHISYMPTIKEGNSRELMGQQSMPNRPNYIAFRDNFIGLMYYNSTGNMGVLAGQASQLNAVVDLQDRNTELSYQLLLDSIGDRTRYFSMWNQAVDSYDPDVRIIENHGTEDELPNYCFPLGGVINTETLTKVKPKTGQENGWEKDATEFSDKNEIRVGNNFAMEINLNANLWRNFLYSNIALYLPDKLKYSPSNVKISDNPNTYDYMNKRVVAPGLVDCYINLGARWSLDYMDNVNPFNHHRNAGLRYRSMLLGNGRYVPFHIQVPQKFFAIKNLLLLPGSYTYEWNFRKDVNMVLQSSLGNDLRVDGASIKFDSICLYATFFPMAHNTASTLEAMLRNDTNDQSFNDYLSAANMLYPIPANATNVPISIPSRNWAAFRGWAFTRLKTKETPSLGSGYDPYYTYSGSIPYLDGTFYLNHTFKKVAITFDSSVSWPGNDRLLTPNEFEIKRSVDGEGYNVAQCNMTKDWFLVQMLANYNIGYQGFYIPESYKDRMYSFFRNFQPMSRQVVDDTKYKDYQQVGILHQHNNSGFVGYLAPTMREGQAYPANFPYPLIGKTAVDSITQKKFLCDRTLWRIPFSSNFMSMGALTDLGQNLLYANSAHALDMTFEVDPMDEPTLLYVLFEVFDVVRVHRPHRGVIETVYLRTPFSAGNATT
notes: hexon of human adenovirus type 5 (species C), whole hexon as it stands in the capsid of the virion; Immobilised as whole virions; also called Ad5; source: wild-type virus from ATCC, grown on 293 cells, virions purified by CsCl ultracentrifugation
B6: hexon of wild-type human adenovirus type 2 (on virions) (natural protein)
chain: MATPSMMPQWSYMHISGQDASEYLSPGLVQFARATETYFSLNNKFRNPTVAPTHDVTTDRSQRLTLRFIPVDREDTAYSYKARFTLAVGDNRVLDMASTYFDIRGVLDRGPTFKPYSGTAYNALAPKGAPNSCEWEQTEDSGRAVAEDEEEEDEDEEEEEEEQNARDQATKKTHVYAQAPLSGETITKSGLQIGSDNAETQAKPVYADPSYQPEPQIGESQWNEADANAAGGRVLKKTTPMKPCYGSYARPTNPFGGQSVLVPDEKGVPLPKVDLQFFSNTTSLNDRQGNATKPKVVLYSEDVNMETPDTHLSYKPGKGDENSKAMLGQQSMPNRPNYIAFRDNFIGLMYYNSTGNMGVLAGQASQLNAVVDLQDRNTELSYQLLLDSIGDRTRYFSMWNQAVDSYDPDVRIIENHGTEDELPNYCFPLGGIGVTDTYQAIKANGNGSGDNGDTTWTKDETFATRNEIGVGNNFAMEINLNANLWRNFLYSNIALYLPDKLKYNPTNVEISDNPNTYDYMNKRVVAPGLVDCYINLGARWSLDYMDNVNPFNHHRNAGLRYRSMLLGNGRYVPFHIQVPQKFFAIKNLLLLPGSYTYEWNFRKDVNMVLQSSLGNDLRVDGASIKFDSICLYATFFPMAHNTASTLEAMLRNDTNDQSFNDYLSAANMLYPIPANATNVPISIPSRNWAAFRGWAFTRLKTKETPSLGSGYDPYYTYSGSIPYLDGTFYLNHTFKKVAITFDSSVSWPGNDRLLTPNEFEIKRSVDGEGYNVAQCNMTKDWFLVQMLANYNIGYQGFYIPESYKDRMYSFFRNFQPMSRQVVDDTKYKEYQQVGILHQHNNSGFVGYLAPTMREGQAYPANVPYPLIGKTAVDSITQKKFLCDRTLWRIPFSSNFMSMGALTDLGQNLLYANSAHALDMTFEVDPMDEPTLLYVLFEVFDVVRVHQPHRGVIETVYLRTPFSAGNATT
notes: hexon of human adenovirus type 2 (species C), whole hexon as it stands in the capsid of the virion; Immobilised as whole virions; also called Ad2; source: wild-type virus from ATCC, grown on 293 cells, virions purified by CsCl ultracentrifugation

Key:
Test in all cases: SPR; Biacore T200; about 300 to 5,000 RU of Ad virions immobilised on a CM5 chip, coagulation factors flowed over at four concentrations, 50 uL/min; running buffer 10 mM HEPES, 150 mM NaCl, 1 mM CaCl2, 0.5 mM MgCl2, 0.1% BSA, 0.05% polysorbate 20, pH 7.4; regeneration with 3 mM EDTA; global fit to a 1:1 kinetic interaction model, double referencing
Conditions in all cases: both partners purified
[1] = molecular target: T1, hexon of the E1/E3-deleted Ad5 vector Ad5.0 (wild-type Ad5 capsid, on virions) (human adenovirus 5, UniProt P04133 2-952)
T1 construct: hexon of human adenovirus type 5, unchanged, as it stands in the capsid of the vector; Immobilised as whole vector virions; source: E1/E3-deleted Ad5 vector grown on 293 cells, virions purified by CsCl ultracentrifugation

[2] = molecular target: B6
[3] = molecular target: B2
[4] = molecular target: T2, human prothrombin (coagulation factor II) (human, UniProt P00734 44-622, gamma-carboxylated glutamate residues in the Gla domain)
T2 construct: prothrombin (FII), human, plasma-derived; also called human FII; FII; source: bought: Haematologic Technologies, Inc. (HCP-0010), plasma-derived

B1: mouse prothrombin (coagulation factor II) (natural protein)
chain: not shown
modifications: gamma-carboxylated glutamate residues in the Gla domain
notes: prothrombin (FII), mouse, plasma-derived; also called mouse FII
Kd [1]: 2000 nM
koff [1]: 0.0361 s⁻¹
kon [1]: 18000 M⁻¹ s⁻¹
Kd [2]: 5.6 nM
koff [2]: 0.000393 s⁻¹
kon [2]: 69700 M⁻¹ s⁻¹
Kd [3]: 2100 nM
koff [3]: 0.0518 s⁻¹
kon [3]: 24500 M⁻¹ s⁻¹

B2
Kd [4]: 39 nM
koff [4]: 0.00321 s⁻¹
kon [4]: 83500 M⁻¹ s⁻¹

B3: mouse coagulation factor X (natural protein)
chain: ANSFFEEFKKGNLERECMEEICSYEEVREIFEDDEKTKEYWTKYKDGDQCESSPCQNQGACRDGIGGYTCTCSEGFEGKNCELFVRKLCRLDNGDCDQFCREEQNSVVCSCASGYFLGNDGKSCISTAPFPCGKITTGRRKRSVALNTSDSELDLEDALLDEDFLSPTENPIELLNLNETQPERSSDDLVRIVGGRECKDGECPWQALLINEDNEGFCGGTILNEFYILTAAHCLHQARRFKVRVGDRNTEKEEGNEMVHEVDVVIKHNKFQRDTYDYDIAVLRLKTPITFRMNVAPACLPQKDWAESTLMTQKTGIVSGFGRTHEKGRQSNILKMLEVPYVDRNTCKLSTSFSITQNMFCAGYEAKLEDACQGDSGGPHVTRFKNTYYVTGIVSWGEGCARKGKYGIYTKVTTFLKWIDRSMKARVGPTAETPRTAGPPN
modifications: gamma-carboxylated glutamate residues in the Gla domain
notes: coagulation factor X, mouse, plasma-derived; Pretreated with 125 uM GGACK (EGRCK); written here as one entry; also called mouse FX; source: bought: Haematologic Technologies, Inc. (MCX-5050), plasma-derived
Kd [1]: 0.32 nM
koff [1]: 8.61e-05 s⁻¹
kon [1]: 266000 M⁻¹ s⁻¹
koff [2]: 0.00018 s⁻¹
kon [2]: 238000 M⁻¹ s⁻¹
koff [3]: 8.4e-05 s⁻¹
kon [3]: 242000 M⁻¹ s⁻¹

B4: bovine coagulation factor X (natural protein)
chain: ANSFLEEVKQGNLERECLEEACSLEEAREVFEDAEQTDEFWSKYKDGDQCEGHPCLNQGHCKDGIGDYTCTCAEGFEGKNCEFSTREICSLDNGGCDQFCREERSEVRCSCAHGYVLGDDSKSCVSTERFPCGKFTQGRSRRWAIHTSEDALDASELEHYDPADLSPTESSLDLLGLNRTEPSAGEDGSQVVRIVGGRDCAEGECPWQALLVNEENEGFCGGTILNEFYVLTAAHCLHQAKRFTVRVGDRNTEQEEGNEMAHEVEMTVKHSRFVKETYDFDIAVLRLKTPIRFRRNVAPACLPEKDWAEATLMTQKTGIVSGFGRTHEKGRLSSTLKMLEVPYVDRSTCKLSSSFTITPNMFCAGYDTQPEDACQGDSGGPHVTRFKDTYFVTGIVSWGEGCARKGKFGVYTKVSNFLKWIDKIMKARAGAAGSRGHSEAPATWTVPPPLPL
modifications: gamma-carboxylated glutamate residues in the Gla domain
notes: coagulation factor X, bovine, plasma-derived; Pretreated with 125 uM GGACK (EGRCK); written here as one entry; also called bovine FX; source: bought: Haematologic Technologies, Inc. (BCX-1050), plasma-derived
Kd [1]: 270 nM
koff [1]: 0.0711 s⁻¹
kon [1]: 262000 M⁻¹ s⁻¹
koff [2]: 0.0142 s⁻¹
kon [2]: 194000 M⁻¹ s⁻¹
Kd [3]: 280 nM
koff [3]: 0.115 s⁻¹
kon [3]: 410000 M⁻¹ s⁻¹

B5: bovine prothrombin (coagulation factor II) (natural protein)
chain: not shown
modifications: gamma-carboxylated glutamate residues in the Gla domain
notes: prothrombin (FII), bovine, plasma-derived; also called bovine FII; source: bought: Haematologic Technologies, Inc. (BCP-1010), plasma-derived
Kd [2]: 140 nM
koff [2]: 0.00531 s⁻¹
kon [2]: 37800 M⁻¹ s⁻¹

B6
Kd [4]: 4.5 nM
koff [4]: 0.000393 s⁻¹
kon [4]: 87400 M⁻¹ s⁻¹
